In publication PMC8390497, “A guanidine-degrading enzyme controls genomic stability of ethylene-producing cyanobacteria” (Nature Communications, 2021):

Substrate: N=C(N)N
Test: HPLC guanidine / GC-MS urea quantification, velocity versus guanidine concentration
Type: biochemical, Synechocystis sp. PCC 6803
Conditions: 20 mM Tris-HCl pH 7.5, 50 mM NaCl, 1 mM MnCl2, 30 °C, His-tagged enzyme, no ATP

B1: Sll1077-His (Synechocystis sp. PCC 6803 substr. Kazusa) (protein)
chain: MSDATPFRPPSEAEEALIKETRLPLTGWQQEVDQGLTYGLEAAASIKDRSIPTFSRGELPHYAGINTFMKAPYLEDVREVGKYDVAIVGVPHDSGTTYRPGTRFGPQGIRRISALYTPYNFEMGVDLREQISLCDVGDIFTIPANNEKSFDQISKGIAHIFSSGAFPIILGGDHSIGFPTVRGICRHLGDKKVGIIHFDRHVDTQETDLDERMHTCPWFHATNMANAPAKNLVQLGIGGWQVPRQGVKVCRERATNILTVTDITEMSLDAAADFAIARATDGTDCVWISFDIDCIDAGFVPGTGWPEPGGLLPREALYLLKRIIRETNVCGMEVVEVSPPYDISDMTSLMATRVICDTMAHLVVSGQLPRTEKPAYIHAEANMAVDEPWQ
notes: full-length with C-terminal 6xHis tag kept (no XhoI linker, pPB316), overexpressed in and purified from Synechocystis 6803 strain PB816W
  Km: 5.3 ± 1.2 mM
  kcat: 0.040 ± 0.010 s⁻¹
